Experimental data reported in the supplement of paper PMC10201428.
± gives the standard deviation of the averaged measurements.

B1: library; a variant is named by its letters at N, in order (parent)
chain: AATGTTGTTGATGCAACCATAAAGTGATATTTAATAATTATTTATAATCAGCAACTTAACCACAAAACAACCATATATTGATATNTCACAAAACAACCATAANTTGATATTTTTGTGAATCGAGTATTTCAGCAAAACTACTGCAGTAAGAA

What was measured:
[1] = variants of: B1; test: relative integration efficiency (T-LR orientation) vs wild-type transposon end (log2 (normalized fold change)); transposon end mutated: left end; higher = more efficient transposition; settings: with VchCAST RNA-guided transposition machinery (E. coli BL21(DE3) host, lacZ target)
Description: (§1)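 Pooled, barcoded VchCAST (Tn6677) mini-transposon donor libraries; each variable transposon-end sequence sits in a fixed pDonor mini-transposon context (10-bp barcode and cargo not included). Left- or right-end libraries were co-transformed with pEffector (TniQ-Cascade, TnsABC, lacZ crRNA, T7, 0.1 mM IPTG) into E. coli BL21(DE3) and grown 18 h at 37 C. T-LR and T-RL junction amplicons were sequenced; output/input barcode fold change was normalised to the mean of four wild-type barcodes and log2-transformed. Two biological replicates; zero-count/undetected variants carry floor values (-10 / -15), censored here. Barcode uncoupling by PCR recombination adds noise.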

[2] = variants of: B1; test: relative integration efficiency (T-RL orientation) vs wild-type transposon end (log2 (normalized fold change)); transposon end mutated: left end; higher = more efficient transposition; settings: with VchCAST RNA-guided transposition machinery (E. coli BL21(DE3) host, lacZ target)
Description: as §1

Variant | relative integration efficiency (log2) [1] | relative integration efficiency (log2) [2]
TA G24A T30A T76A T78A T84A C87A T104A T110A T113A | 0.184 ± 0.12 | 0.0385 ± 0.19
CG A15C A16C C17A C18A | -2.02 ± 1.9 | -1.89 ± 0.66
TA A23G G24T A33T T76A T78A T84A C87A T104A T110A T113A | 0.471 ± 0.38 | 0.117 ± 0.25
CG A1T A2T T3A G4T T5A | -0.359 ± 0.037 | -0.373 ± 0.043
CG A1T A2T T3A G4C | 0.144 ± 0.82 | 0.164 ± 0.1
CG A1T A2T T3A G4C T5A | -0.0748 ± 0.54 | 0.103 ± 0.061
CA A22T G24T T31C A33C A96C T110A T113A | -0.837 ± 0.2 | -0.802 ± 0.25
TA A16C G24T T32G A33C A70C T76A T86G A96C T110A T113A | -0.842 ± 0.018 | -0.63 ± 0.38
TA A22T G24T T31C A33C T76A T78A T84A C87A A102T T111C T113C | -0.838 ± 1.2 | -0.485 ± 0.43
TA A16C G24T T32G A33C T76A A77G C87T A96C T112G T113C | -0.88 ± 1.2 | -0.489 ± 0.45
TA A22T G24T T31C A33C T76A T78G C87A A102T T111C T113C | -0.662 ± 0.16 | -0.645 ± 0.14
TA T76A T78A T84A C87A T104G T113A | 0.188 ± 0.023 | -0.245 ± 0.21
TA A16C G24T T32G A33C T76A A77G C87T A102T T111C T113C | -1.56 ± 0.58 | -1.11 ± 0.63
CG A11T T12A G13C C14G | -2.81 ± 1.2 | -0.558 ± 0.43
CA G24A T30A A96C T110A T113A | -0.0456 ± 0.31 | -0.302 ± 0.28
TA A23G G24T A33T T76A T78A T84A C87A A96C T110A T113A | 0.43 ± 0.2 | 0.182 ± 0.35
TA A16C G24T T32G A33C A70C T76A T84A C87A T104G T113A | -1.55 ± 1.7 | -0.951 ± 0.57
TA T76A T78G C87A A96C T110A T113A | -0.0777 ± 0.55 | -0.0885 ± 0.14
TA A23G G24T A33T T76A T78G C87A A96C T110A T113A | 0.938 ± 0.63 | 0.884 ± 0.19

Variant | relative integration efficiency (log2) [1] | relative integration efficiency (log2) [2]
TA G24A T30A A70C T76A T86G A96C T112G T113C | 0.18 ± 0.5 | 0.313 ± 0.07
TA A23G G24T A33T T76A T78G C87A A102T T111C T113C | -0.451 ± 0.41 | -0.227 ± 0.17
CA A23G G24T A33T T104A T110A T113A | -0.166 ± 0.3 | -0.424 ± 0.22
CA A16C G24T T32G A33C T104G T113A | -0.783 ± 0.61 | -0.765 ± 0.33
TA A16C G24T T32G A33C T76A T78A T84A C87A A96C T112G T113C | -0.572 ± 0.31 | -0.447 ± 0.34
TA G24A T30A A70C T76A T86G A96C T110A T113A | 0.0588 ± 0.23 | -0.265 ± 0.38
CG A11C T12G | -1.34 ± 0.53 | -0.436 ± 0.26
TA A23G G24T A33T T76A A77G C87T A102T T111C T113C | -0.439 ± 0.39 | -0.836 ± 0.54
TA A22T G24T T31C A33C T76A T78G C87A A96C T112G T113C | -0.491 ± 0.49 | -0.16 ± 0.22
TA G24A T30A T76A T78A T84A C87A A102T T111C T113C | -0.493 ± 1.1 | -0.0919 ± 0.22
TA A23G G24T A33T T76A A77G C87T A96C T110A T113A | -0.603 ± 0.67 | -0.516 ± 0.48
TA A22T G24T T31C A33C T76A T78G C87A T104G T113A | -0.379 ± 0.48 | -0.685 ± 0.35
TA A16C G24T T32G A33C A70C T76A T84A C87A T104A T110A T113A | -2.03 ± 1.6 | -0.844 ± 0.55
TA G24A T30A T76A T78G C87A T104G T113A | -0.302 ± 0.11 | -0.161 ± 0.15
TA A22T G24T T31C A33C T76A A77G C87T T104G T113A | -1.13 ± 0.85 | -1.41 ± 0.56
CG A15C A69C A95C | -0.511 ± 0.34 | -0.731 ± 0.34
TA A16C G24T T32G A33C A70C T76A T86G T104A T110A T113A | -0.474 ± 0.24 | -0.791 ± 0.56
TA A70C T76A T84A C87A A102T T111C T113C | 0.619 ± 0.14 | 0.128 ± 0.4
CA A16C G24T T32G A33C A102T T111C T113C | -0.854 ± 0.58 | -0.751 ± 0.51

Variant | relative integration efficiency (log2) [1] | relative integration efficiency (log2) [2]
TA A16C G24T T32G A33C T76A T78A T84A C87A A102T T111C T113C | -0.59 ± 0.77 | -0.405 ± 0.22
TA A16C G24T T32G A33C T76A T78G C87A T104G T113A | -0.174 ± 1.1 | -0.675 ± 0.24
TA G24A T30A T76A A77G C87T A96C T112G T113C | -0.263 ± 0.26 | 0.0641 ± 0.26
TA T76A A77G C87T T104G T113A | 0.151 ± 0.33 | -0.605 ± 0.42
CG A1C A2C T3G G4T T5G | -0.299 ± 0.17 | -0.197 ± 0.14
TA A23G G24T A33T A70C T76A T84A C87A A102T T111C T113C | -0.166 ± 0.29 | 0.133 ± 0.28
CG A15T A69T A95T | -1.55 ± 0.76 | -1.31 ± 0.47
CG A1T A2T | 0.429 ± 0.098 | 0.223 ± 0.059
TA A23G G24T A33T T76A T78A T84A C87A A102T T111C T113C | -0.26 ± 0.5 | 0.131 ± 0.23
TA A23G G24T A33T T76A A77G C87T A96C T112G T113C | -0.402 ± 0.62 | -0.2 ± 0.18
CA A102T T111C T113C | 0.118 ± 0.59 | -0.254 ± 0.41
TA A23G G24T A33T A70C T76A T86G A96C T112G T113C | -0.361 ± 0.74 | -0.338 ± 0.051
TA A16C G24T T32G A33C A70C T76A T84A C87A A102T T111C T113C | -1.61 ± 0.92 | -0.84 ± 0.38
TA A16C G24T T32G A33C A70C T76A T84A C87A A96C T110A T113A | -0.499 ± 1.2 | -0.0812 ± 0.47
CG A2T T3A G4C T5A | -0.131 ± 0.037 | -0.0191 ± 0.036
TA A22T G24T T31C A33C T76A T78A T84A C87A T104A T110A T113A | -0.396 ± 0.056 | -0.175 ± 0.33
CA A16C G24T T32G A33C A96C T112G T113C | -1.27 ± 0.78 | -0.695 ± 0.12
CG A1C | 0.307 ± 0.19 | -0.0236 ± 0.1
CG A1T | 0.281 ± 0.54 | 0.063 ± 0.045
